# Experimental data as given in patent US20220324970A1 (Janssen / Centocor, published 2022).
# T1: mouse pIgR extracellular domain (ECD) (mouse, UniProt O70570 19-645)
# T1 construct: The entry ends with a HHHHHH tag; also called mpIgR; mpIgR ectodomain
# T1 sequence: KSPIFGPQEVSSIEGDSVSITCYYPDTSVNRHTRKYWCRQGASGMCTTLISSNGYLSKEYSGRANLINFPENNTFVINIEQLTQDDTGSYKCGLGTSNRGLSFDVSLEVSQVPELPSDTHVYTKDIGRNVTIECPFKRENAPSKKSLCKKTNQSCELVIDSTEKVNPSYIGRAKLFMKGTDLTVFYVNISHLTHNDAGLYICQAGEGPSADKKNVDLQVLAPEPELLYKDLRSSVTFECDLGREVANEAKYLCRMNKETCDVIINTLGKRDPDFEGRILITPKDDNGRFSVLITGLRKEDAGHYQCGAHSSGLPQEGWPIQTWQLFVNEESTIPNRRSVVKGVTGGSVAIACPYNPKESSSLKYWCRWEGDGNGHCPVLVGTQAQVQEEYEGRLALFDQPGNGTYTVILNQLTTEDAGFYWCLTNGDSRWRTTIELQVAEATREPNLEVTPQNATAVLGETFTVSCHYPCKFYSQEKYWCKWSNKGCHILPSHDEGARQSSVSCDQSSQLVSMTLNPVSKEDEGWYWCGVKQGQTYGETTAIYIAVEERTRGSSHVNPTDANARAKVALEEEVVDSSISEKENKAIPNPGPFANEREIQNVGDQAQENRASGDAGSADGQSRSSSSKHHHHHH
# T2: human pIgR extracellular domain 4-domain 5 (D4-D5) (human, UniProt P01833 350-565)
# T2 construct: HIS-tagged construct made in HEK293 cells; also called hpIgR domains 4-5
# T2 chain: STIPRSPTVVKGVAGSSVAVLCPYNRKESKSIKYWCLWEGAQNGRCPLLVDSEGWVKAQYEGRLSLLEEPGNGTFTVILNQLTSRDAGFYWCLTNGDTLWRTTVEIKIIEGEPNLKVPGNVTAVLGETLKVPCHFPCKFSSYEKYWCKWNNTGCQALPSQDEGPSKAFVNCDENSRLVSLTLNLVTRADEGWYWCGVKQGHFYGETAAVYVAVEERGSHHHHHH
# B1: VHH2-linker-mono-Fc protein (Fc fusion)
# chain: EVQVVESGGGLVQAGGSLKLACAAPGLTFSSYRMGWFRQAPGQEREFVAAIDWNGRGTYYRYYADSVKGRSTISRDNAKNTVYLQMNSLKPEDTAVYYCAATTVLTDPRVLNEYATWGQGTQVTVSSEPKTPKPQPQPQLQPQPNPTTESKSPKSPAPELLGGPSVFLFPPKPKDTLMISRTPEVTCVVVDVSHEDPEVKFNWYVDGVEVHNAKTKPREEQYNSTYRVVSVLTVLHQDWLNGKEYKCKVSNKALPAPIEKTISKAKGQPREPQVYTKPPSREEMTKNQVSLSCLVKGFYPSDIAVEWESNGQPENNYKTTVPVLDSDGSFRLASYLTVDKSRWQQGNVFSCSVMHEALHNHYTQKSLSLSPGK
# notes: also called VHH2-mono-Fc; mpIgR_338
# B2: VHH3-linker-mono-Fc protein (Fc fusion)
# chain: QLQLVESGGGLVQPGGSLRLSCAASGSIFSINVMGWYRQAPGKQRELVARINGGGITHYAESVKGRFTISRDNAKNTVYLQMNSLKPEDTAAYYCKADVFGSSGYVETYWGQGTQVTVSSEPKTPKPQPQPQLQPQPNPTTESKSPKSPAPELLGGPSVFLFPPKPKDTLMISRTPEVTCVVVDVSHEDPEVKFNWYVDGVEVHNAKTKPREEQYNSTYRVVSVLTVLHQDWLNGKEYKCKVSNKALPAPIEKTISKAKGQPREPQVYTKPPSREEMTKNQVSLSCLVKGFYPSDIAVEWESNGQPENNYKTTVPVLDSDGSFRLASYLTVDKSRWQQGNVFSCSVMHEALHNHYTQKSLSLSPGK
# notes: made in CHO cells; also called VHH3-mono-Fc; hpIgR_021
# What was measured:
# [1] = target: T3, human pIgR extracellular domain 1-domain 2 (D1-D2) (human, UniProt P01833 19-240); test: ratio of the second to the first EC50 column
# T3 construct: HIS-tagged construct made in HEK293 cells
# [2] = target: T4, human pIgR extracellular domain 1 (D1) (human, UniProt P01833 19-127); test: ratio of the second to the first EC50 column
# T4 construct: HIS-tagged construct made in HEK293 cells; also called hpIgR domain-1
# [3] = target: T5, human pIgR, full-length, on cells (human, UniProt P01833 19-764); test: cell-based or functional assay
# T5 sequence (P01833 19-764): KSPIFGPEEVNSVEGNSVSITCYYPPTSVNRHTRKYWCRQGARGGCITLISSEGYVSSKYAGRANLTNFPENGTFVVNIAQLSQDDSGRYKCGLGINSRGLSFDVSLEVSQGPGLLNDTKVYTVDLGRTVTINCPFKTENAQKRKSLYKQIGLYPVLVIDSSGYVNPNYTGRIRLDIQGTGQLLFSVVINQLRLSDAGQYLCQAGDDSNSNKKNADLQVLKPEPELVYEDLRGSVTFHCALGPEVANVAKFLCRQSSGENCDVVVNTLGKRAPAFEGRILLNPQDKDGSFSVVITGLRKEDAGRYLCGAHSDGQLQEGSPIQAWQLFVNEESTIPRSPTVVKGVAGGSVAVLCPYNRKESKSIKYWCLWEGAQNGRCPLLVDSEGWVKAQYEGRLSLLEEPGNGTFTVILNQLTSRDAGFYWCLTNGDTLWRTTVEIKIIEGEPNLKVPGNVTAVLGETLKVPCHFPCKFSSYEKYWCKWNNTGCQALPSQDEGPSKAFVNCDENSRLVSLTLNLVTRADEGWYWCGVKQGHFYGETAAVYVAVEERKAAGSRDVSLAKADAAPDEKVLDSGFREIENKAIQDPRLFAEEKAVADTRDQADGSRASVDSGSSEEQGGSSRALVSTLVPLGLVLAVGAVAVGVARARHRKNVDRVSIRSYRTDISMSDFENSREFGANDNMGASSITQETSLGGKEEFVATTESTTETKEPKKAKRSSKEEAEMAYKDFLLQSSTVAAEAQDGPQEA
# [4] = target: T6, human pIgR extracellular domain (ECD) (human, UniProt P01833 19-638); test: ECL (MSD), hpIgR-ECD coated, anti-Fc detection
# T6 construct: also called hpIgR ECD
# Method: To check whether VHH recognizes a buried epitope on pIgR, EC₅₀ values were measured for VHH-mono-Fc molecules binding to hpIgR-ECD protein by electrochemiluminescence using two different detection antibodies, an anti-Fc antibody and an anti-VHH antibody. pIgR ECD (10 μg/ml in PBS) was coated on high-bind MSD plates for 2 hours at RT with 1000 rpm, incubated with blocking buffer for 1 hour at RT, incubated with VHH-mono-Fc molecules (increasing concentrations in PBS) for 2 hours at RT with 1000 rpm, washed 3× with PBT, incubated with ruthenylated secondary antibody (2 μg/ml in PBS) for 1 hour at RT with 1000 rpm, washed 3× with PBT and read plates in 40 ul reading buffer using the MSD imager. EC50 was calculated by fitting log VHH concentration versus log ECLU in Prism (Graphpad). The increase in EC₅₀ (>50-fold) due to anti-VHH detection was used as a measure to determine whether VHH recognized buried epitope on pIgR.
# [5] = target: T6, human pIgR extracellular domain (ECD); test: BLI; summary table, repeats Table 1; summary Table 4
# Target sequence in this assay (P01833 other isoform, or with tags, fused parts or gaps): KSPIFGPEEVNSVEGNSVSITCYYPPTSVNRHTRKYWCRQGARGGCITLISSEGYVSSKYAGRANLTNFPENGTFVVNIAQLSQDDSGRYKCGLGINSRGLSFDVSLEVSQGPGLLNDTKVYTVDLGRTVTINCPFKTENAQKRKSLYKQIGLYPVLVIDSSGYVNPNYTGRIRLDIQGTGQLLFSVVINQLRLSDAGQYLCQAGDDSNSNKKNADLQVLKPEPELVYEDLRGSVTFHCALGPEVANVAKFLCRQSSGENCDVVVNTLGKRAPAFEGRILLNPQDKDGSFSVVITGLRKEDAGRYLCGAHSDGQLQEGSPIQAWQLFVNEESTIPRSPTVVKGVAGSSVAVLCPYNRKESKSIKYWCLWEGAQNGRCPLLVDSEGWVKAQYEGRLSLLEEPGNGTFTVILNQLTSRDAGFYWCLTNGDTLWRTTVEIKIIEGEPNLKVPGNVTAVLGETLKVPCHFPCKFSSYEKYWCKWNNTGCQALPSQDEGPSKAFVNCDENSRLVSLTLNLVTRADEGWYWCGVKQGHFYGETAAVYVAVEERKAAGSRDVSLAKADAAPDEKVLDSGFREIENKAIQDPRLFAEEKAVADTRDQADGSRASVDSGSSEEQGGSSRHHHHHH
# [6] = target: T6, human pIgR extracellular domain (ECD); test: BLI; summary table, repeats Table 1
# Target sequence in this assay (P01833 other isoform, or with tags, fused parts or gaps): as above
# [7] = target: T7, hpIgR domain-1 with teleost fish CDR3 (hD1 tCDR3) (human, UniProt P01833 19-127, limits assumed); test: BLI, HIS-tagged pIgR construct on anti-HIS biosensors
# T7 construct: CDR-swapped hpIgR domain-1 mutant, HIS-tagged, made in HEK293 cells; not shown: HIS tag
# [8] = target: T6, human pIgR extracellular domain (ECD); test: as above
# Target sequence in this assay (P01833 other isoform, or with tags, fused parts or gaps): as above
# Method: (§1) Bio-layer Interferometry was performed as follows. […] Data were collected with Octet Data Acquisition version 7.1.0.87 (ForteBio) and analyzed using Octet Data Analysis version 7.1 (ForteBio). To measure binding kinetics between VHH-mono-Fc molecules and HIS-tagged pIgR proteins, VHH-mono-Fc was immobilized on amine-reactive generation-2 (ARG2) biosensors according to manufacturer's instructions and increasing concentrations of pIgR proteins were exposed to sensor-immobilized VHH. In some cases, HIS-tagged pIgR proteins were immobilized on anti-HIS biosensors and exposed to increasing concentrations of VHH-mono-Fc molecules. Association and dissociation rates were measured by the shift in wavelength (nm). […] All reactions were performed at 25° C. in PBS.
# (§2) (Full-length hpIgR ECD was purchased from R&D Systems.) The five constructs (D1-D2, D1, D1_tCDR1, D1_tCDR2, D1_tCDR3) were expressed and purified from HEK293 cells using immobilized metal ion affinity chromatography. Three hpIgR domain-1 CDR mutants (D1_tCDR1, D1_tCDR2, D1_tCDR3) contain respective teleost fish CDR on a hpIgR domain-1 framework. His-tagged pIgR constructs were immobilized on anti-HIS biosensors and binding of VHH-mono-Fc molecules to pIgR constructs were measured by bio-layer interferometry.
# [9] = target: T4, human pIgR extracellular domain 1 (D1); test: as above
# Method: as §1, §2
# [10] = target: T5, human pIgR, full-length, on cells; test: cell-based or functional assay; remark: listed apart in the source
# [11] = target: T5, human pIgR, full-length, on cells; test: flow cytometry on MDCK-hpIgR cells
# Method: Flow Cytometry was performed as follows. To test whether VHH-mono-Fc molecules recognize cell-surface hpIgR, Madin-Darby canine kidney (MDCK) cells engineered to express full-length hpIgR were used. Cells were cultured in Dulbecco's modified Eagle's medium containing 10% fetal calf serum at 37° C. with 5% CO₂. Cells were split into equal fractions (≈70,000 cells) and incubated with increasing concentrations of VHH-mono-Fc molecules for 30 min at 4 C. […] Cells were washed twice with cold staining buffer, resuspended in running buffer and analyzed with an iQue Screener (IntelliCyt Corporation). Binding was assessed by RL1 (A647) Geomeans from the live cell population and EC50 was calculated by fitting log VHH concentration versus MFI in Prism (Graphpad).
# [12] = target: T6, human pIgR extracellular domain (ECD); test: ECL (MSD), anti-VHH detection against anti-Fc detection
# Target sequence in this assay (P01833 other isoform, or with tags, fused parts or gaps): as above
# [13] = target: T6, human pIgR extracellular domain (ECD); test: BLI, screen of the VHH clones generated from mpIgR antigen
# Target sequence in this assay (P01833 other isoform, or with tags, fused parts or gaps): as above
# [14] = target: T1, mouse pIgR extracellular domain (ECD); test: as above
# [15] = target: T2, human pIgR extracellular domain …; test: ECL (MSD) heat map, HIS-tagged construct captured via anti-HIS, anti-human-Fc detection
# Method: The Electrochemiluminescence assay was performed as follows. A meso-scale discovery (MSD) platform was used for conducting epitope mapping and epitope burial studies. To test the binding of VHH-mono-Fc molecules to purified pIgR protein constructs, Streptavidin MSD plates were coated with a biotinylated anti-HIS antibody (2 μg/ml in PBS) for 1 hour at RT with 1000 rpm, washed 3× with PBT (PBS+0.1% Tween-20), incubated with blocking buffer for 1 hour at RT, incubated with His-tagged pIgR proteins (10 μg/ml in PBS) for 2 hours at RT with 1000 rpm, washed 3× with PBT, incubated with VHH-mono-Fc molecules (100 μg/ml in PBS) for 2 hours at RT with 1000 rpm, washed 3× with PBT, incubated with ruthenylated-anti-human-Fc antibody (2 μg/ml in PBS) for 1 hour at RT with 1000 rpm, washed 3× with PBT and read plates in 40 ul reading buffer using the MSD imager. ECLU values were plotted as a heatmap.
# [16] = target: T6, human pIgR extracellular domain (ECD); test: BLI, HIS-tagged pIgR construct on anti-HIS biosensors; HIS-tagged hpIgR_ECD on anti-HIS biosensors, Table 3
# Target sequence in this assay (P01833 other isoform, or with tags, fused parts or gaps): as above
# Method: as §1, §2
# [17] = target: T1, mouse pIgR extracellular domain (ECD); test: BLI, screen of the VHH clones generated from hpIgR antigen
# [18] = target: T6, human pIgR extracellular domain (ECD); test: BLI; summary table, repeats Table 1; remark: listed apart in the source
Binder,Fold change [1],Fold change [2],increase in their apical concentration relative to control VHH (MDCK-hpIgR monolayers) [3] [fold],EC50 [4] [nM],Kd [5] [nM],Kd [6] [nM],Kd [7] [nM],Kd [8] [nM],Kd [9] [nM],Transcytosis (Fold Incr.) [10] [fold],EC50 [11] [nM],Fold change in EC50 [12] [fold],Kd [13] [nM],Kd [14] [nM],binding result [15],Kd [16] [nM],Kd [17] [nM],Kd [18] [nM]
B1,1.2,1.2,> 10,4.2,21,21,14.9,22,15.5,34.2,6.3,1,22,1,no binding (tested: 100 ug/ml (single concentration)),,,
B2,11.9,5.7,,0.5,,5,7.5,,7.7,2.6,6.4,54,,,,10,40,5
